Literature values, collected in paper PMC6928821.
Read-outs that look alike come from different tables or passages of the source.

Key:
p300 Taz2 (Homo sapiens) [1] = biological target: p300 Taz2 (Homo sapiens) (UniProt Q09472)
p300 Taz2 (Homo sapiens) [2] = biological target: p300 Taz2 (Homo sapiens) (UniProt Q09472); remark: listed apart in the source
p300 (Homo sapiens) = p300 (Homo sapiens) (UniProt Q09472)
Sequence of p300 (Homo sapiens) (Q09472 2-2414): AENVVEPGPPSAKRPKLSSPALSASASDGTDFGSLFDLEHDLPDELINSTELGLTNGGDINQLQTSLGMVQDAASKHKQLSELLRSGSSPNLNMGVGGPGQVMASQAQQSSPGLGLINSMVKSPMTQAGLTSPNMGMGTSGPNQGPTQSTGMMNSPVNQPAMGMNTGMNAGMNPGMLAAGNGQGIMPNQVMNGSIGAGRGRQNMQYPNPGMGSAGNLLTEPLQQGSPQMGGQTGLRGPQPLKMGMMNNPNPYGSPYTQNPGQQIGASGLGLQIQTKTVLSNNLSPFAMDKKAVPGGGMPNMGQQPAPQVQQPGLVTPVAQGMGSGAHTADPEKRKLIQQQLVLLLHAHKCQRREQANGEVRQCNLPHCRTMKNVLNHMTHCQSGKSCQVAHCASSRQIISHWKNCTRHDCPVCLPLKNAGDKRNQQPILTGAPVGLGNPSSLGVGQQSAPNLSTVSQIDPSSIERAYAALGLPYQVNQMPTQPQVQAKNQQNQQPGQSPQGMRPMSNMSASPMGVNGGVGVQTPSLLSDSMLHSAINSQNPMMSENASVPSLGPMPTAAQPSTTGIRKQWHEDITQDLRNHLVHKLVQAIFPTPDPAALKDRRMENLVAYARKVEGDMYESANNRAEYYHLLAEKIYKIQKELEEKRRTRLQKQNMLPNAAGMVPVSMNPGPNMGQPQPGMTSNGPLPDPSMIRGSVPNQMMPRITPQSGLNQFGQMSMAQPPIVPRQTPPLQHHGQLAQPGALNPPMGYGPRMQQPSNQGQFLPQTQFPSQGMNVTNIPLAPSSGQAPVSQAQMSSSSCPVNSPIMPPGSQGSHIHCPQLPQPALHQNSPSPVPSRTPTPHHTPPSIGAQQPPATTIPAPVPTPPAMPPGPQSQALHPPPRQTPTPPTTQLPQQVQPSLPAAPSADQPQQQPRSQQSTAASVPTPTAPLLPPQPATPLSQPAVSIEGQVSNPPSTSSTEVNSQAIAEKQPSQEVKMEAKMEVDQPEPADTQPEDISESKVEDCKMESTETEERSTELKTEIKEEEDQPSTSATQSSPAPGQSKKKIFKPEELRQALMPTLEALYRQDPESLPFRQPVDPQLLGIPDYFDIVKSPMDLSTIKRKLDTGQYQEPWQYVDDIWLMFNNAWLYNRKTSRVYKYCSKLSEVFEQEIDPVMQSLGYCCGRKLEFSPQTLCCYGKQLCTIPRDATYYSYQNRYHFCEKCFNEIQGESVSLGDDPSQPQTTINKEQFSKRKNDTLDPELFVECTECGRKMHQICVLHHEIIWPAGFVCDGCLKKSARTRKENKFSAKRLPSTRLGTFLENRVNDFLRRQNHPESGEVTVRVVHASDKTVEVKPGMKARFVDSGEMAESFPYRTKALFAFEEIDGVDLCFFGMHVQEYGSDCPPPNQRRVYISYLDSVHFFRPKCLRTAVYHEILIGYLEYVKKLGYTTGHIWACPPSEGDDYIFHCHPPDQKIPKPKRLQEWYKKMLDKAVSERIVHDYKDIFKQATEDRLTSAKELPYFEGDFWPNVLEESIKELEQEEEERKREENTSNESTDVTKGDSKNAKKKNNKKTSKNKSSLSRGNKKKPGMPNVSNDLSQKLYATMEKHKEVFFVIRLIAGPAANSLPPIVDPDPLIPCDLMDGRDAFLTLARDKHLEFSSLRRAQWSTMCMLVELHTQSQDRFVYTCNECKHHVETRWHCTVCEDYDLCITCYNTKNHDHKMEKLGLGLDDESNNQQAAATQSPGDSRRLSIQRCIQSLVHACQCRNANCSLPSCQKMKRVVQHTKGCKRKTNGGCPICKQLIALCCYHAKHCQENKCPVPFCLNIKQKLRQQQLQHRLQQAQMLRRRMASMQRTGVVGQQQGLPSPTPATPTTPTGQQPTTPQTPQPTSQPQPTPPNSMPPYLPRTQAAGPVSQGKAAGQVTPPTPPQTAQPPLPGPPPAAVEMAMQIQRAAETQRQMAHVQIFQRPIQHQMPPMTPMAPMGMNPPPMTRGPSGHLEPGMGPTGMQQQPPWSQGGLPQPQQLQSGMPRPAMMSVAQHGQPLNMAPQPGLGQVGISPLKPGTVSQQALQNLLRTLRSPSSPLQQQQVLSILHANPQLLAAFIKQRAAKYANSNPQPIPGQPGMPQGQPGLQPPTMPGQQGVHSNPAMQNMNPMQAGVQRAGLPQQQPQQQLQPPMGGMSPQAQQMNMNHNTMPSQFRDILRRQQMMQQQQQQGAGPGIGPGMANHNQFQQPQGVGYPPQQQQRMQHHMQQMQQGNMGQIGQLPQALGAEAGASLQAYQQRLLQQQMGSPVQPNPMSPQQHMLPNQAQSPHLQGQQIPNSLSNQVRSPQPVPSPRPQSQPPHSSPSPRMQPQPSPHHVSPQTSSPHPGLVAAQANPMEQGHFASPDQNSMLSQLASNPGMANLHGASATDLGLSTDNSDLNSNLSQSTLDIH

Sequence of p300 Taz2 (Homo sapiens) (Q09472 1723-1836): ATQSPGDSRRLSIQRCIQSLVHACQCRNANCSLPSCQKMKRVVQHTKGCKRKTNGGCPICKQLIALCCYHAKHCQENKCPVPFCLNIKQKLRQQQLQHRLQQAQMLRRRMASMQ
Sequence of p53 TAD1 TAD1 (P04637 13-37): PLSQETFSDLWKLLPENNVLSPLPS
Sequence of p53 TAD1 1-39 (P04637 1-39): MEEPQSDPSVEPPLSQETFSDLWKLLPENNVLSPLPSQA

| Substance | Kd (p300 Taz2 (Homo sapiens) [1]) | Kd (p300 Taz2 (Homo sapiens) [2]) | Kd (p300 (Homo sapiens)) |
| --- | --- | --- | --- |
| p53 TAD1 TAD1 (from UniProt P04637) | 200 nM | 3000 nM |  |
| p53 TAD1 1-39 (from UniProt P04637) |  |  | 3000 nM |
